Laboratory results from EP4365192A1.

Columns and labels:
[1] = biological target: Recombinant Human FGFR1 alpha (IIIc) Fc Chimera Protein (R&D systems, 658-FR-050) (human) (UniProt P11362); assay: ELISA: FGFR1 alpha (IIIc)-Fc coated at 0.5 ug/ml; FGF sample at 80 ng/mL after 24 h at 37°C; detected with biotinylated anti-FGF antibody BAM233 and streptavidin-HRP; blank subtracted
[2] = biological target: Recombinant Human FGFR1 alpha (IIIc) Fc Chimera Protein (R&D systems, 658-FR-050) (human) (UniProt P11362); assay: ELISA: FGFR1 alpha (IIIc)-Fc coated at 0.5 ug/ml; FGF sample at 80 ng/mL after 48 h at 37°C; detected with biotinylated anti-FGF antibody BAM233 and streptavidin-HRP; blank subtracted
[3] = biological target: Recombinant Human FGFR1 alpha (IIIc) Fc Chimera Protein (R&D systems, 658-FR-050) (human) (UniProt P11362); assay: ELISA: FGFR1 alpha (IIIc)-Fc coated at 0.5 ug/ml; FGF sample at 80 ng/mL after 6 h at 37°C; detected with biotinylated anti-FGF antibody BAM233 and streptavidin-HRP; blank subtracted
[4] = biological target: Recombinant Human FGFR1 alpha (IIIc) Fc Chimera Protein (R&D systems, 658-FR-050) (human) (UniProt P11362); assay: ELISA: FGFR1 alpha (IIIc)-Fc coated at 0.5 ug/ml; FGF sample at 80 ng/mL after 0 h at 37°C; detected with biotinylated anti-FGF antibody BAM233 and streptavidin-HRP; blank subtracted

Sequence of Recombinant Human FGFR1 alpha (IIIc) Fc Chimera Protein (R&D systems, 658-FR-050) (human) (P11362 22-376, change not shown): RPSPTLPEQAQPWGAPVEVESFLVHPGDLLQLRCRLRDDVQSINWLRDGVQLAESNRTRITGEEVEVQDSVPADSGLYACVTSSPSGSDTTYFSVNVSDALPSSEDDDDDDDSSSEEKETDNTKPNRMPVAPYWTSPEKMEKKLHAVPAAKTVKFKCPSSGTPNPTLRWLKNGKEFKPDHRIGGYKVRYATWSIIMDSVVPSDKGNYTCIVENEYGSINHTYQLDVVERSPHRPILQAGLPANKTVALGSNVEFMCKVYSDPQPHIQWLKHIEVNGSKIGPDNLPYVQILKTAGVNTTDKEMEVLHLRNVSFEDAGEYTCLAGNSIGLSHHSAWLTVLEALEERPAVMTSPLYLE

- Absorbance (450 nm) (absorbance (450 nm)) [1]: 1.5
- Absorbance (450 nm) (absorbance (450 nm)) [2]: 0.8
- Absorbance (450 nm) (absorbance (450 nm)) [3]: 2.1
- Absorbance (450 nm) (absorbance (450 nm)) [4]: 2.3
Substance: FGF301 (FGF2_native_Pig) (from UniProt P03969 10-155) (ligand)
